# From paper doi:10.1101/2020.09.22.308395
# Target: UDP-GlcNAc 4-epimerase (Gne) from Campylobacter jejuni (Campylobacter jejuni)
# Assay: SEC-MALLS
substance,measurement,value
UDP-GlcNAc 4-epimerase (Gne) from Campylobacter jejuni (enzyme),stoichiometry N,2
